Laboratory results taken from a protein production outcome set (Wang et al. 2014).

Experiment: label from the status in PepcDB records
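Further: failed if final PepcDB status was selected cloned or expressed and not failed if soluble or beyond.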

Sequence	protein production
NANDQAIAYVMLGNKAQTVLNGNLKVDFMETENSSSVKKQKALVAKVSQREEMVKKCLGELTEVCKSLGKVFGVHYFNIFNTVTLKKLAESLSSDPEVLLQIDGVTEDKLEKYGAEVISVLQKYSEWTSPAED	failed
MKDRLINFFGSEWFGMAIATLAVAQTFFLASRYMENITLKYTGEIFFYLGIIIFLVIFILWTIRGLTIHDKKWSHWNNLTRLSFIALVPIILFVINHITIELYGINELMARLSLYNYFFSYFLALILGVLLGYRIYTKEINRNEINYAIIIPPLSIGTSIFLATPLIGYYHGTIAESIYFLVLMGLGIFFFLYIFIGSVALSGHVSNKSGSSLPTAMLPVGVSSLIIINLISINSFGAVIDHLPFSIYTVEFVSILLWGFEVWNFLVMMIIVFRKETFGYLSVWAYGFPLGLFATSTIKLEEVTKIVILGNIFIFIWVALVLLWFYGILNTYVFIRRGILGSHPDK	failed
MKRADIKRRPLADTTLTGLEPEAKEYRELDGNGLYFRVKPDGGKSWQLRYKRPAGNWAWMGLGGYPEVSGALAREKAAELRKTISSGIDPLEQKRSAKAAIDAAKTRTFRAAADAWLKAKEEKGLAPSTLNKIRTYLDKDILPALGDKPLDEITRTDCAELQASIEARDAHNVAEKCRTWINQIFGRAIGLGLTENDPGSRLRDIAAQAPKTQQHPHLLEPELGEFLTALKNTPSRLTARTAAWLCIWTASRPGMVRLAEWKEFDLDKATWTTPAAKMKMRRDFVCPLPHQAIAALKELHCLTGRSRWLFPGVGAKNPTISENTINKVFATIGYKGRLVGHGTRHTASTLLREHGWPKEHVEAQLAHKEEGISGVYNKAQYLEQRITMMQWYADHLDALEQGKVIQGQFGKAL	failed
MLTAFTAGLLLITVSELGDKTFFIAMILAMRYPRRWVLVGVVGGLAAMTILSVLMGQIFTFLPTRYINYAEVALFLIFGTKLLWDARRIKATANLEEMEDAEKAIASGEKKLKIVPRGWGIVVESFALTFVAEWGDRTQIATIALAASNNAWGVSAGAILGHTICAVIAVMGGKFVAGRISEKTVTLIGGLLFYLFAVVSWWTKIA	failed
TNHKGEKINVAVKTCKKDCTLDNKEKFMSEAVIMKNLDHPHIVKLIGIIEEEPTWIIMELYPYGELGHYLERNKNSLKVLTLVLYSLQICKAMAYLESINCVHRDIAVRNILVASPECVKLGDFGLSRYIEDEDYYKASVTRLPIKWMSPESINFRRFTTASDVWMFAVCMWEILSFGKQPFFWLENKDVIGVLEKGDRLPKPDLCPPVLYTLMTRCWDYDPSDRPRFTELVCSLSDVYQMEKDIAMEQERNARYRTPKILEPTAFQE	failed
MRKLLLGLSALTLATASAAAAQDPGPAAPVQYEVAFPNATHREARITATFRKVPKGALQLRMSRSSPGRYAIHEFAKNVYQVTAVDGAGKPLKVDRAEPYGWSVSGHDGTVKVTYTLYADRGDGTYSQIDTTHAHLNMPATFLWAVGYHDKPIRVRFERADPSWKIATQLPPVAGQPDSFWAPNLQYFMDSPTELSAMTVREWKVTDKGRDYTFRLALHHTGTEADADTFAEKLKAIVPEHIKVFGELPKFDYGEYTFIADYMPQITGDGMEHRNSTFISQPRSLFRGNFSQLGTASHELFHAWNVERIRPAELEPFDFTKANPTPSLWLAEGFTQYYGPLLIRRAGQSSMDEFLTGLSGTLNGVVNGPGRLYGSPQEMSLRAPFVDAAAALDPVNPNIFTSYYPYGAVIGLALDLQLRGRDKPLSLDDFMKQMWRAHGVTEKPYTPADVRAALAKTTGDQAFADAFFKASIEGSALPDFAPLLERAGLKLRQKAPKKAWLGAARVKVSGTELLLDAPPVPNSPLYGAGVEVGDRIISIGRFVFANESDWTDALDRLKPGEAMTVQFIQRGQVREAPMTIAADPTLEVVRFEKVDLKPTEAQLAFRTAWLGAEAEAAK	failed
MCEGHTRNDPCERRHDPGARVRRKAGKIRSMILVFFSLCLGALIGALFRFPWYMLFLLAAIFWKRNKDISVVIFFTLLSASLYQIGTLPAGNYELVGYAERGRLKQVKVFQEEWKRIHPVRIETSEEGYVYAIGYFDGKAFHPSYLKKVEKPSLKTLKESFSGMANGTVLSVLFGEKNGDIYRSGLGHFFAVSGLHVGIAFSLYTTLLSFLTWRRTYQELTALLLLVPYVIAVGTPSVIRAYLTIFLWVAFKIFGFRTTPLHTTATVGSFMMIVDPTVVFTPSFLLSFFVTLCILESKNIFELTVKAYLSALPFLCLFFGGTNMSALVLSIPVSLLMIPVTWLAHLSFLLFLLGLKTSALIAAKITNIVSLPLNGFIKLANLLPEVPLPQYLYFILIFFPLLFLSPDIRDIFRKISGRAIL	failed
MILSLNLLHKISPKLKKIPLNELCAALMDLGCEVETINSIKPSTNLVFAKVLEKTRHPNANHLNLVKVKANQKVYEIVCGANNFSVHNWVVLAKLNAELANGLKITPRELRGYVSNGMLCAYSEINPQATSFLTSTDLDGILVLDDNYDHYKTPNQIFNLDDVILDLSIPSNRNDLNGYFWIAKELCAYFDFEYVVDATINHRPHKEIIDVRILSDDVNSYGIIEVKNIQNYILKWNTKSILINNQIKVLNNFADNMNFLTLLTANPLHAFDARKISGQIVVKNAEEDAILLGLDQKEYLIKKGDLIIVDDQKILALAGIIGSNDSKIDATSTTAYIECANFNPMLIANTARRLKINTAAAMRFSKPLTNYVTKVTLKKLLANFKSDAKLIYYFKHSVHNVIKNKINQVSDFVGAEIDLDTAQTFLKRLGYKINKSNLITPSHRYDVLNEFDVYEDIMKKISIQEIKPQPISFDILNFENNLAYDFEKKVSDFLVDQGLFECKTYNLKNQTQAHEFNFFNFKQAYEINNPTSNMRSHLKLNNLNSLLEVLEYNQNQKNELENIFEISKINPVDSSQQTVLSIILCKPLINSKINDSLIVNNFVTTKALLHALLTKLNIDYAYDKNHVVNELYDNNQLALINANKQVFGFIGQLKNQVKKTYGLSNDIFIINLNLTSYLNQKQVITKVIKPSMYHDVIRDISVKLASDVDLNNIIANIKKIKNIRKVEISDLYIKDDGIIYTFKYYINDHLSNLSSEQIIIIEQEVNNYLKQF	failed
MKFALQINEGPYQHQASDSAYQFAKAALEKGHEIFRVFFYHDGVNNSTRLTTPPQDDRHIVNRWAELAEQYELDMVVCVAAAQRRGIVDEGEASRNGKDATNIHPKFRISGLGQLVEAAIQADRLVVFGD	not failed
IQNNEATLRCIVENLPIFFGMRTINFSNWYYINPSFESLTGYTPDEMYEDPLLWQKIHREEYAENLEQARPNLGEWTIFSMEKKDGTQIWAQTVEFLVDDLSDTARVVVFGQDITDIKRAEIETLRSLVKERELNEAKSQFVDIVSHEFRTPLTSIIGF	failed
MSELARIVPDSEKISHILIEQGRKITFYSYFSNTFVLGIIAYILVDNTVALDKNSLFFVKTLPFRKKDISLSFMLFKFVIMILLYELVMIISTPAIKLVTTVPIEYVIFFIVQHLFYLVVIGVIEFIHCLFTFFLKRRVKQINSLKVIGDSLLMIFATFYFFDFRYGLELFLANQLWSISYMIPITFFLIVVCLMLISIGLLRLISILENQMSQHSKYIYIPFLNKVIFRYKANWYFISFTTVVMLVIFFQSGLRTMLFILTTVMAFSGVLLLSYGDITADFRKQYDLLRIKIRNEWLSQLLLVIMLAMPLLLLCFWGFGELAQLITALSLSLVAIILGYVFPKSQGSLNETTSLLLLFIVFVLVSLLTNRSFGWLILIVLVLLHLLVIKKVRNEKE	failed
MGLKQTLKEIYYIVADKRLLYFSLSLGISTFAYSLLTYYFPIIMTNLDITTFTIGIIYSIISFLYVVFNIPLGAIVDKIGSKNAVTLSALMAVPLFLLMGTLNPLLFIISLVIFESVIRIVNSLGAHRFMLNYTNAGKAFGVFSLITSILAAIGIMLGGYLLQHSVSTLLFTIIAVLFGISGIIRFLELPKDENKVEVKRSLRLGFKYLKEDKKLLLYLLVSILSSGLSLETYYVTIYFVKDLLLPLTFVGVLYSSYALIMAFLPLLFSVILSKRSNFKNLSILIFSNSVIFFLVPLFTNVYILFLLFYAWTVIVAMESIVDYNVAQSVTKPEIRGTQVALISTFVRIFSVFYNAIVGLLFQITPLYSFYFTGFLGILAIFTIKFAEFIGVLK	failed
MTRPAHPISRYPVPELAALPDDIRQRILEVQDKAGFVPNVFLTLAHRPDEFRAFFAYHDALMLKDGGLTKGEREMIVVATSAANQCLYCVVAHGAILRIYEKKPLVADQVAVNYLKADIPPRQRAMLDFALKVCKASHEVNEADFEALREHGFTDEDAWDIAAITAFFGLSNRMANTIGMRPNDEFFLMGRVPKSK	not failed
IEGLFIFDRNQKCVYANHIALNLFGYTLEEVHSKSILDFIALGFRNKVKRFSQNRDQPPYEVLGIKNDGSLFPIMIRGKAIELG	failed
MAMALFQSAPHSLCILRLSAIGDVCNTIAAVQAIQRQWPQTRITWVTGKLEAELIQSLPDIQVIVFDKKLGWRAYTQLWQQLKSERFDALLHMQYAFRASIATLGIKARYKLGFDAARSQDFQTWFTNVKVPSPDKMHVLDGLLAFVEHLGIRDIEPKWSLTCQPDDLTWAEAQFQPEQPRLVVVPGASKAYKNWTAEGYAAVIEHAQQQGWQVILAGSPAQVERDLAAQVEQALAHPVLNLVGKSTLQQMLALLAKADLVIAPDTGPAHMANAMHTPIIGLYAHHNPERTGPYHYRHYVVSAYQEALLAETGKMPQQVDWRTRVKDPNAMQRITAQQVIAMFERAAADIMATQVND	failed
MVEHIFKRDGHAEKFQPYKIEDAIKKAFESVNVRYDDRIYTNVILAIESENLNSVECIQDRIELEFFKAGYFAVMKSFMNYRFLHKMQREHIYGLSEDTTYVNSTQSVEEYINKEDWRINANANTGYSNAGLVNNLAGKLIANYWLDKVYSKEEGYAHRNGDVHIHDLDCLTGYCAGWSLRSLLNEGFNGVRGRVESRAPKHLREALGQMANFLGILQSEWAGAQAFSSFDTYLAPYVFRDQLEFKEIKKAIKSFVYNLNVPARWGQSPFTNVTIDWTVPADLKDQIPTRNDRHLFEDIQEDALLVQEAQKRGASSLLSMTYKYFQAEMNLINRAFYEVMTEGDKTGQPFTFPIPTVNITEDFDWHGENTDLLFENTAKIGSSYFQNFIGSQYIRNEKGELVENPEAYKPNAVRSMCCRLQLDLRELLKRGGGLFGSAEMTGSIGVVTLNMARLGYRFRGDREGLMAELTKLMDLSKSTLEKKRQAVTELFHRGLYPYTKRYLPGFNNHFSTIGVNGINEMIRNFTNDQDNISSPSGMAFATEILEFMRERIRSYQEETGNLYNLEATPAEGTTYRFAKEDKKRYPQIIQAGMEENVYYTNSSQLPANFTDDPFEALTLQDELQCKYTGGTVLHLYMREKISSAEACRKLVKTVITSYKLPYITITPVFSVCPKHGYLRGEHEYCPLCDEEALLEIEQSQCC	failed
MKISIICPLYNAENYIMSLHNKILEQEKPEGTEVEVSYVLTRCKDKTEEMLKNMNLQYTLIEPKDFSHSKTREMMAFKSTGDIIVFISQDVMMKNNFWLKNLVQPIIDGECEASFSRQLCTNNTIEKYIREKNYPEESRVVSKKDINKYGLLTFFYSDASSAVKTSVYKELNGYDNKRLLINEDMYFAEKLIQAGYRIKYCSDSEVYHSHVFTLKSLYERYFDTGVFFRQNSQFLNYKGNKSGKDLAIHVLKRSLEDKNFKVTLNILPNFGARFIGSFLGKKYESLPRSFVMASSMSKKVYSQILEHHHHHH	not failed
MVKPMHLFAVVDALEQAQQFQQVLASRDVSTELVQIEQLNARFLRHHPELALCVDLDGLWLSANGMKMQPDWQAEIPRLKRASLKSEMIARACQINEQPSLIDATAGLGHDSLLMAYLGAHVTLVERHPVLFTLLEDAKSKAENDPFLSKYMQRIHLIFQDAHYYLQQCNQDDRKVDVIYLDPMFPQRDQHHQVIKKQAQVKKQMQLLHLLLPEDGEMDLGDQLLPLAQQIASRVVVKRPKHAVFLNEQQPDHQWQGDACRFDAYFQISMLEHHHHHH	failed
